The results in this text go back to article PMC12167477, “Setdb1 and Atf7IP form a hetero-trimeric complex that blocks Setdb1 nuclear export” (The Journal of Biological Chemistry, 2025).

B3: biotinylated Avitag-MBP-Atf7IP(574-666) (domain or fragment, human, UniProt Q6VMQ6 574-666, looked up)
chain: EEEYEAEFQVKITAKGDINQKLQKVIQWLLEEKLCALQCAVFDKTLAELKTRVEKIECNKRHKTVLTELQAKIARLTKRFEAAKEDLKKRHEH
modifications: biotin on the AviTag (cultures supplemented with 40 uM biotin, birA co-expressed)
notes: The methods describe only the Avitag-MBP form as purified on its own; also called MBP-Atf71P; source: E. coli, co-expressed with birA and biotin, purified (MBPTrap, Superdex 200); not shown: AviTag, N-terminal, kept; MBP, N-terminal, kept

For series [1], the target named is B3. Briefly: AlphaScreen or HTRF; AlphaScreen His-Detection kit: nickel chelate acceptor beads and streptavidin donor beads; both proteins at 20 nM, or one at 20 nM and the other 0 to 20 nM; 50 mM MOPS, 50 mM CHAPS, 50 mM NaF, 100 ug/ml BSA, pH 7; room temperature; triplicates. To be noted: both partners purified.
Series [2] deals with the molecule itself. Description: SEC; gel filtration of isolated MBP-Atf7IP(574-666) with and without Tween 20 in the buffer.
The next series has as its target T1, GST-Setdb1(2-115) (human, UniProt Q15047 2-115).
T1 construct: source: E. coli, purified (GSTTrap, Superdex 200); not shown: GST, N-terminal, kept
Description: pull-down; 0.5 uM GST-fusion immobilised on glutathione Sepharose beads; 1.5 uM hCrm1 with or without 4.5 uM RanGTP; with or without pre-incubation with MBP-Atf7IP(574-666) (3-fold or 15-fold excess); 20 mM HEPES 7.4, 110 mM potassium acetate, 2 mM magnesium acetate, 10% glycerol, 2 mM DTT, 0.005% Tween20; Coomassie SDS-PAGE. To be noted: both partners purified.

The target in the next series is T2, his-sumo-Setdb1(2-115) (human, UniProt Q15047 2-115).
T2 construct: also called his-sumo-Setdb1(2-114); source: E. coli (BL21DE3 or Rosetta2), purified (HisTrap, dialysis); not shown: His6, N-terminal, kept; SUMO, N-terminal, kept
Briefly: AlphaScreen or HTRF; AlphaScreen His-Detection kit: nickel chelate acceptor beads and streptavidin donor beads; both proteins at 20 nM, or one at 20 nM and the other 0 to 20 nM; 50 mM MOPS, 50 mM CHAPS, 50 mM NaF, 100 ug/ml BSA, pH 7; room temperature; triplicates. To be noted: both partners purified.

Series [3] concerns the molecule itself. Description: native MS; co-expressed and purified MBP-Setdb1(2-115)/his-sumo-Atf7IP(574-666) complex, 500 nM, 400 mM ammonium acetate pH 7.9, 1 mM DTT; Q Exactive UHMR; HCD fragmentation.
The target in series [4] is T3, MBP-Setdb1(2-115) (human, UniProt Q15047 2-115).
T3 construct: The methods list the MBP tag of the vectors as AviTag-Mbp; also called MBP-Setdb1(2-114); not shown: MBP, N-terminal, kept
Description: SEC-MALS; co-expressed and purified complex, about 400 ul at about 1 mg/ml, Superdex 200 Increase 10/300. To be noted: both partners purified.

Series [5] deals with the molecule itself. Description: cross-linking; disulfide cross-linking of MBP-Atf7IP(574-666) with only C631, in isolation; SDS-PAGE with and without BME.
Series [6] addresses T3, MBP-Setdb1(2-115). Description: pull-down; three tagged proteins co-expressed in E. coli, complex purified sequentially by the his tag and then the strep tag; SDS-PAGE. To be noted: partners not purified.

B1: his-sumo-Setdb1(Δα1-α2; residues 50-115) (domain or fragment, human, UniProt Q15047 50-115, looked up)
chain: KMDCVQQRKKQLAELETWVIQKESEVAHVDQLFDDASRAVTNCESLVKDFYSKLGLQYRDSSSEDE
notes: source: E. coli, purified (HisTrap, dialysis); not shown: His6, N-terminal, kept; SUMO, N-terminal, kept
On to B1, for which the “binding, percent of WT” value in series [1] was ~30 % of WT.

B2: his-sumo-Setdb1(Δα1; residues 35-115) (domain or fragment, human, UniProt Q15047 35-115, looked up)
chain: ISMEELRHFIDEELEKMDCVQQRKKQLAELETWVIQKESEVAHVDQLFDDASRAVTNCESLVKDFYSKLGLQYRDSSSEDE
notes: as for B1
With B2, the “binding, percent of WT” value in series [1] is ~80 % of WT.

For the molecule B3, the binding result (in series [2]; with GST-Setdb1(2-115); with his-sumo-Setdb1(2-115)) was “binds” each time.

B4: his-sumo-Atf7IP(574-666) (domain or fragment, human, UniProt Q6VMQ6 574-666, looked up)
chain: EEEYEAEFQVKITAKGDINQKLQKVIQWLLEEKLCALQCAVFDKTLAELKTRVEKIECNKRHKTVLTELQAKIARLTKRFEAAKEDLKKRHEH
notes: not shown: His6, N-terminal, kept; SUMO, N-terminal, kept
For B4, the binding result in series [3] is on record as “binds”. Also, the “stoichiometry N” value with MBP-Setdb1(2-115) [4] is 2 Atf7IP per Setdb1.

B5: MBP-Atf7IP(574-666) C608S C612S (domain or fragment, human, UniProt Q6VMQ6 574-666, looked up)
chain: EEEYEAEFQVKITAKGDINQKLQKVIQWLLEEKLSALQSAVFDKTLAELKTRVEKIECNKRHKTVLTELQAKIARLTKRFEAAKEDLKKRHEH
notes: The methods name the synthesised vector without the MBP tag on Atf7IP; the results call the protein MBP-Atf7IP; also called Atf7IP(C631); source: also used in isolation; not shown: MBP, N-terminal, kept
On to B5, for which the binding result in series [5] was “binds”.

B6: Atf7IP2(297-388), his-sumo- or Strep-tagged (domain or fragment, UniProt Q5U623 297-388, looked up)
chain: MKTSEQINENICVSLERQTAFLEQVRHLIQQEIYSINYELFDKKLKELNQRIGKTECRNKHEGIADKLLAKIAKLQRRIKTVLLFQRNCLKP
notes: Atf7IP2, coiled coil region, residues 297-388; Two differently tagged copies of one fragment, written as one molecule; in the mixed trimer with Atf7IP only the Strep-tagged copy was there; also called his-sumo-Atf7IP2(297-388); Strep-Atf7IP2(297-388); not shown: His6-SUMO (one copy) or Strep (the other copy), N-terminal, kept
Turning to B6, the “stoichiometry N” value in the series with MBP-Setdb1(2-115) [6] turned out to be 2 Atf7IP2 per Setdb1.
